Measurements from the supplement of paper PMC10567573.

B1: SFRS1 (parent)
chain: RDIDLKNRRGGPPFAFVEFEDPRD
B2: SMOC2 (parent)
chain: QKPLCASDGRTFLSRCEFQRAKCK

Variants of: B1
Test: protein stability index of a GFP-peptide fusion (GPS, HEK-293T) (PSI 1-6); higher = more stable
Conditions: c terminus: a fixed tail appended
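Further: lentivirally expressed fusions sorted by FACS into six bins by GFP to DsRed ratio, PSI derived from sequencing read proportions per bin multiplied by bin number.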

Protein stability index: each site, then its substitutions
R23: P 4.53, T 4.33, F 3.37, V 3.45, M 3.79, S 4.07, Q 4.15, D 4.18, E 4.1, L 3.72, N 4.24, C 3.67, K 4.14, W 3.62, H 4.17, I 3.67, A 3.88, Y 3.19, G 3.84
D24: T 3.13, S 3.02, E 4.76, V 3.11, A 3.74, F 2.15, W 1.33, I 2.72, Y 2.5, C 2.46, Q 3.39, M 2.64, K 3.65, N 2.9, R 3.19, G 3.47, P 3.42, L 2.31, H 3.59
E20: R 2.91, V 3.02, L 2.71, I 2.56, M 2.57, C 2.67, K 3.52, N 3.68, Y 2.46, H 3.21, A 3.06, F 2.67, Q 2.91, T 3.3, W 2.72, S 2.89, D 3.94, G 3.14, P 3.66
P22: H 3.63, G 4.03, W 3.55, C 3.8, K 4.09, S 3.93, A 3.93, T 3.99, F 2.9, Y 3.58, Q 4.44, L 3.19, V 3.76, N 4.15, E 4.43, I 3.94, D 4.5, R 3.62, M 3.76
F19: G 4.03, K 3.18, I 3.27, L 4.22, V 3.03, Y 4.11, M 3.19, R 3.38, T 3.47, H 3.95, N 3.38, S 3.19, D 3.69, Q 3.94, C 3.05, W 3.39, P 3.85, E 4.77
D21: V 3.02, R 3.08, M 2.8, F 2.65, K 3.73, P 3.45, Q 3.54, N 3.38, A 3.1, T 3.72, I 2.63, H 3.34, S 3.26, Y 3.18, G 2.55, C 2.73, L 2.51, W 2.95, E 3.99

Variants of: B2
Test: as above
Conditions: c terminus: a fixed tail appended

Protein stability index, by site and new letter:
C23: Q 3.91, Y 1.85, A 2.9, N 4, F 1.88, G 3.62, S 3.69, E 3.32, W 2.34, R 4.18
A21: K 3.9, R 3.18, N 2.68, V 2.96, F 2.44, W 1.85, I 3.14, C 3.48, T 3.4, G 3.68
Q19: M 3.09, D 3.83, G 3.15, E 3.48, K 3.67, P 3.28, F 2.53
F12: R 3.73, G 3.93, A 3.84, L 2.97, T 3.63, E 4.5, H 4.22, P 4, Y 2.49, I 3.4, D 4.57, V 3.92, N 3.96, W 2.34, S 4.83
A6: I 2.74, V 3.69, C 2.57, T 2.42, D 2.9, K 2.82, P 3.32, N 2.63, S 3.44, Q 3.21, R 2.74
D8: E 3.66, H 2.52, V 2.76, C 1.63, P 2.75, R 3.23, A 2.37, F 1.94, K 2.56, Y 2.67, L 1.97
K24: P 2.83, A 3, W 2.36, F 1.92, T 3.18, R 1.74, H 2.76, I 2.23, M 2.62, D 3.35
L4: S 3.35, N 3.08, Q 2.81, W 2.51, D 3.83, I 2.31
R10: F 2.95, K 2.96, A 3.24, H 2.71, V 4.03, W 2.58
L13: E 3.72, V 2.29, Y 2.52, K 3.3, Q 3.4, I 2.82, C 3.51, S 2.44, T 3.93, H 3.31
C16: N 4.28, R 4.44, S 3.83, A 3.39, W 2.89, G 4.3, V 2.61, T 3.96, I 1.79, M 3.43, Y 3.06, F 3.86
S14: P 4.08, G 3.44, E 3.08, T 3.4, M 3.66, L 3.76, Y 2.71, C 2.82, F 2.64, A 3.42, Q 3.25, V 3.22, D 3.21
S7: I 2.31, V 2.59, L 2.82, F 2.8, M 1.67, R 2.38, Q 2, H 2.57, C 1.82
E17: H 2.84, N 3.29, A 3.31, S 2.68, C 2.74, D 2.11, R 3.5, G 2.26, T 3.3, I 3.15
Q1: E 3.39, M 2.78, L 2.17, I 2.19, G 3.23, S 2.68, P 2.64
R15: E 4.14, P 4.64, F 3.18, K 4.2, N 3.09, I 3.77, M 2.92, G 3.93
R20: P 3.61, C 3.45, E 3.45, T 3.83, Y 2.62, D 4.16, G 3.58, Q 3.52, I 3.39, L 3.01, V 2.9
C5: H 2.7, F 2.01, K 2.19, I 1.74, G 2.44, N 4.28, P 2.94
P3: K 2.42, N 2.2, Q 2.28, Y 2.83, H 2.17, C 2.39, I 2.16, M 3.12, R 3.19, F 1.89
K2: V 2.97, R 3.47, T 3.18, F 2.75, G 3.16
G9: W 2.82, V 2.93, M 3.19, K 2.14, A 2.58, Y 1.9, T 2.67
F18: N 4.19, V 4.01, A 3.93, Y 2.21, W 1.6, G 4.44, C 3.56, I 4.24
T11: M 2.89, D 3.33, I 2.71, Y 2.03, K 4.04, G 2.6, F 2.09, W 2.81, V 2.33, H 2.38
K22: I 2.27, Y 2.46, V 2.86, Q 3, D 2.9, T 2.71, M 2.36, L 2.11
